Results from patent US20160274129.
Positions count from the first letter of the chain named. Numbers in names are those of the source.

T1: α-fructosyl-valyl-histidyl-leucyl-threonyl-proryl-glutamic acid
T1 chain: VHLTPE

B1: NvFX (protein)
chain: MTTPRKETTVLIIGGGGTIGSSTALHLLRAGYTPSNITVLDTYPIPSAQSAGNDLNKIMGIRLRNKVDLQLSLEARDMWRNDALFRPFFHNTGRLDCESSAEGVEGLRREYQKLVEAGVGLEETHEWLDSEEAILEKAPLLQREEIEGWKAIWSEEGGWLAAAKAINAIGEELQRQGVRFGFGGAGSFKRPLFADDGTTCIGVETVDGTQYHADKVVLAAGAWSPALVDLEEQCCSKAWVYAHMQLTPEEAAVYKGCPVVYHGDVGFFFEPNENGVIKVCDEFPGFTRFKQHQPYGAPAPKPVSVPRSHAKHPTDTYPDASEESIKRAVSTFLPRFKDKPLFNRALCWCTDTADSALLICEHPRWKNFILATGDSGHSFKLLPIIGKHVVELVEGRLADDLAEAWRWRPGQGDARKSIRAAPAKDLADMPGWKHDQDSESR
B2: NvFX-62D/106K/110L (protein)
chain: B1 chain with R62D, G106K, E110L
B3: CFP-T7-H2 (protein)
chain: MTSNRADTRVIVVGGGGTIGSSTALHLVRSGYAPANITVLDTFEIPSAQSAGHDLNKIMGIALRNKVDLQMSLEARQMWKEDELFQPFFHNTGRMDCEHTPEGIEDLKKLYQALHDAGAGLEKTHAWLDNEDEILSKMPLLQRDQIQGWKAIWSQDGGWLAAAKAINAIGQFLKERGVKFGFGGAGSFKQPLFDDEGTTCIGVETADGTKYYADKVVLAAGAWSPTLVDLEDQCCSKAWVYAHIQLTPEEAAEYKGVPVVYNGEFGFFFEPDEFGVIKVCDEFPGFSRFKEHQPYGAPSPKRISVPRSHAKHPTDTYPDASEVSIKKAIATFLPRFQDKELFNRALCWCTDTADAALLMCEHPKWKNFILATGDSGHSFKILPNVGKYVVELIEGRLPEEMAYQWRWRPGGDALKSRRAAPPKDLADMPGWKHDPKL
B4: EFP-T5 (protein)
chain: MAHSRASTKVVVVGGGGTIGSSTALHLIRSGYTPSNITVLDVYKTPSLQSAGHDLNKIMGIRLRNGPDLQLSLESLDMWQNDELFKPFFHQVGMIDCSSSKEGIENLRRKYQTLLDAGIGLEKTNVWLESEDEILAKAPNFTREQVKGWKGLFCTDGGWLAAAKAINAIGIFLQDKGVKFGFGDAGTFQQPLFAADGKTCIGLETTDGTKYFADKVVLAAGAWSPTLVDLEDQCVSKAWVFAHIQLTPKEADAYKNVPVVYDGEYGFFFEPDEYGVIKVCDEFPGFSRFKLHQPYGAASPKMISVPRSHAKHPTDTYPDASEVTIRKAIARFLPEFKDKELFNRTMCWCTDTADANLLICEHPKWKNFILATGDSGHSFKLLPNIGKYVVELLEGSLSQEMAGAWRWRPGGDALRSRRGAPAKDLAEMPGWKHDAHL
B5: EFP-T5-62D/63H/106K/110L/113K/355S (protein)
chain: B4 chain with R62D, L63H, N106K, K110L, T113K, A355S
B6: EFP-T5-R62D (protein)
chain: B4 chain with R62D
B7: AnFX (protein)
chain: MTPRANTKIIVVGGGGTMGSSTALHLLRAGYTPSNITVLDTCPIPSAQSAGYDLNKIMGIRLRNKPDLQLSLEALDMWKNDPLFKPFFHNVGMIDVSSTEEGIEGLRKKYQSLLDAGIGLEKTNFMLESEDEILAKAPHFTQEQIKGWKGLFCGDGGWLAAAKAINAIGQFLKEQGVKFGFGGAGTFKKPLFADAHEKTCIGVETVDGTKYYADKVVLAAGAWSSTLVDLEEQCVSKAWVFAHIQLTPAEAAAYKNTPVIYDGDYGFFFEPNENGIIKVCDEFPGFTHFKMHQPYGSPAPKPISVPRSHAKHPTDTYPHASEVTIKKAINRFLPRFNDKELFNRAMCWCTDTADANLLVCEHPRWKGFYLATGDSGHSFKLLPNIGKHVVELLEERLESVFKDAWRWRPGSGDALKSRRAAPAKDLADMPGWRNEAKM
B8: AnFX-61D/105K/109L (protein)
chain: B7 chain with R61D, G105K, K109L

Biological target: T1, α-fructosyl-valyl-histidyl-leucyl-threon …

Protein | Specific activity (U/mg), 1 mM αF6P, purified enzyme [U/mg] | also measured
B1 | 0 | –
B2 | 0.003 | –
B3 | – | αF6P oxidation activity (crude enzyme; αFVH oxidation activity = 100) (relative (αFVH = 100)): 0.0735; αF6P/αFV: 0.000536; αF6P/αFVH: 0.000735
B4 | 0 | –
B5 | 1.12 | –
B6 | 0.0043 | –
B7 | 0 | –
B8 | 0.106 | –
